In the nanobody polyreactivity screen of Harvey et al. (2022):

Assay: yeast display, Sf9 membrane polyspecificity reagent, FACS + sequencing; frameworks hold sequencing errors
How it was run: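 A nanobody's polyreactivity label depends on the gate it was sorted from. Yeast display cells were stained with 10% biotinylated, detergent-solubilized Sf9 membrane reagent for 1 hour at 4 °C, enriched on streptavidin microbeads and sorted by FACS. The low and high (top ~1%) gates were set on anti-HA fluorescence for expression and streptavidin fluorescence for reagent binding.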

| Sequence | polyreactivity (PSR sort gate) |
| --- | --- |
| QVQLVESGGGLVQAGGSLRLSCAASGIIIDSNAMGWYRQAPGKERELVADITSGGSTKYADSVKGRFTISRDNAKNTVYLQMNSLKPEDTAVYYCNADFRPADQWSYFYEMDSWGQGTQVTVSS | low polyreactivity |
| QVQLVESGGGLVQAGGSLRLSCAASGIIIDTNAMGWYRQAPGTERELVASISKRGGSTYYADSVKGRFTISRDNAKNTVYLQMNSLKPEDTAVYYCNALRRRQYHDDYWGQGTQVTVSS | high polyreactivity |
| QVQLVESGGGLVQAGGSLRLSCAASGIIIDYYAMGWYRQAPGKERELVAAITSGGSTSYADSVKGRFTISRDNAKNTVYLQMNSLKPEDTAVYYCNTEPSGYESGYWGQGTQVTVSS | low polyreactivity |
| QVQLVESGGGLVQAGGSLRLSCAASGIIIDYYTMGWYRQAPGKERELVAAINKSGGSTYADSVKGRFTISRDNAKNTVYLQMKSLKPEDTAVYYCAAEVDYSDWPEYARKYYYWGQGTQVTVSS | low polyreactivity |
| QVQLVESGGGLVQAGGSLRLSCAASGIIIDYYTMGWYRQAPGKERELVAAINKSGGSTYADSVKGRFTISRDNAKNTVYLQMNSLKPEDTAVYYCAAEVDYSYSPEYARKYYYWGQGTQVTVSS | low polyreactivity |
| QVQLVESGGGLVQAGGSLRLSCAASGIIIQINAMGWYRQAPGKERELVAAITIDGTTNYADSVKGRFTISRDNAKNTVYLQMNSLKPEDTAVYYCARRRSVYVWEPYQYDYWGQGTQVTVSS | low polyreactivity |
| QVQLVESGGGLVQAGGSLRLSCAASGIIIRYYGMGWYRQAPGKERELVARIRWTGGSTYYADSVKGRFTISRDNAKNTVYLQMNSLKPEDTAVYYCAAQWKYRQSYLDYYWGQGTQVTVSS | low polyreactivity |
| QVQLVESGGGLVQAGGSLRLSCAASGIILGKNAMGWYRQAPGKERELVASITSGAGITYYADSVKGRFTISRDTAKNTVYLQMNSLKPEDTAVYYCNTYPYLWGQGTQVTVSS | low polyreactivity |
| QVQLVESGGGLVQAGGSLRLSCAASGIILGPYAMGWYRQAPGKERELVAAISWRGGSTYYADSVKGRFTISRDNAKNTVYLQMNSLKPEDTAVYYCATASRTSRTGWAGYYWGQGTQVTVSS | high polyreactivity |
| QVQLVESGGGLVQAGGSLRLSCAASGIILPYYVMGWYRQAPGKEREFVADITWSGGSTYYADSVKARFTISRDNAKNTVYLQMNSLKPEDTAVYYCAAEGQWYYFFDMDYWGQGTQVTVSS | high polyreactivity |
| QVQLVESGGGLVQAGGSLRLSCAASGIILREYTMGWYRQAPGKERELVAAISGSGGSTYYADSVKGRFTISRDNAKNTVYLQMNSLKPDDTAVYYCNAVIAAKARDAVVGSGMDYWGQGTQVTVSS | high polyreactivity |
| QVQLVESGGGLVQAGGSLRLSCAASGIILSLYAMGWYRQAPGKERELVATIRFSGGSTYYADSVKGRFTISRDNAKNTVYLQMNSLKPEDTAVYYCNKHLATTFTVSRFDYWGQGTQVTVSS | low polyreactivity |
| QVQLVESGGGLVQAGGSLRLSCAASGIILTEYAMGWYRQAPGKERELVAAINRVGSTNYADSVKGRFTISRDNAKNTVYLQMNSLKPEDTAVYYCAAGTYYNDYDYWGQGTQVTVSS | low polyreactivity |
| QVQLVESGGGLVQAGGSLRLSCAASGIILVQYVMGWYRQAPGKERELVASISRTGGSTYYADSVKGRFTISRDNAKNTVYLQMNSLKPEDTAVYYCAALAYRYSYPRGYWGQGTQVTVSS | high polyreactivity |
| QVQLVESGGGLVQAGGSLRLSCAASGIILYFYDMGWYRQAPGKERELVAVITGGGGSTYYADSVKGRFTISRDNAMNTVYLQMNSLKPEDTAVYYCAALPWFPDEEYDYWGQGTQVTVSS | high polyreactivity |
| QVQLVESGGGLVQAGGSLRLSCAASGIILYVYGMGWYRQAPGKERELVATITWSDGGTYYADSVKGRFTISRDNAKNTVYLQMNSLKPEDTAVYYCNVVVVNGWVTTPGYDYWGQGTQVTVSS | low polyreactivity |
| QVQLVESGGGLVQAGGSLRLSCAASGIILYYNAMGWYRQAPGKERALVAAITTSGVSTYYADSVKGRFTISRDNAKNTVYLQMNSLKPEDTAVYYCNADYLYGRYTYDYWGQGTQVTVSS | low polyreactivity |
| QVQLVESGGGLVQAGGSLRLSCAASGIILYYYAMGWYRQAPGKERELVAAINWSGGSTSYADSVKGRFTISRDNAKNTVYLQMNSLKPEDTAVYYCAARLGSWHYQVWNDKYEYWGQGTQVTVSS | high polyreactivity |
| QVQLVESGGGLVQAGGSLRLSCAASGIILYYYAMGWYRQAPGKERELVASISRGDSTNYADSVKGRFTISRDNAKNTVYLQMNSLKPEDTAVYCNKDYLPSLYRGFDYWGQGTQVTVSS | low polyreactivity |
| QVQLVESGGGLVQAGGSLRLSCAASGIIQPRYAMGWYRQAPGKERELVAAISRGGGTYYADSVKGRFTISRDNAKNTVYLQMNSLIPEYSAVYNCASAYVFVGSSHYYWGQGTQVTVSS | high polyreactivity |
| QVQLVESGGGLVQAGGSLRLSCAASGIISSVYAMGWYRQAPGKERELVAAISGSGGSTYYADSVKGRFTISRDNAKNTVYLQMNSLKPEDTAVYYCAIGYQYQGNSYGYWGQGTQVNVSS | low polyreactivity |

| Sequence | polyreactivity (PSR sort gate) |
| --- | --- |
| QVQLVESGGGLVQAGGSLRLSCAASGIISSVYAMGWYRQAPVKERELVAAISGSGGSTYYADSVKGRFTISRDNAKNTVYLQMNSLTPEDTAVYYCAKGYQYQGNSYGYWGQGTQVTVSS | low polyreactivity |
| QVQLVESGGGLVQAGGSLRLSCAASGIISYLYAMGCYRQAPGKEREWVAVIRTSDAITYYADSVKGRFTISRDNAKNTVYLQMNSLKPQDTAVYYCAAAGYAWWGEYEYWGQGTLVTVSS | high polyreactivity |
| QVQLVESGGGLVQAGGSLRLSCAASGIISYRYGMGWYRQAPGKEGELVAAISWSGGSTYYADSVKGRFTISRDNAKNTVYLQMNSRKPEDTAVYYCAAYWRQAGVFKIYDYWGQGTQVTVSS | high polyreactivity |
| QVQLVESGGGLVQAGGSLRLSCAASGIIVYYYAMGWYRPAPGKERELVAAISTSGTRTFYADSVKGRFTISRDNAKKTVYLQMNSLKPEDTAVYYCAARIYKPQRCTSLYRTSGYWGQGTQVTVSS | high polyreactivity |
| QVQLVESGGGLVQAGGSLRLSCAASGIIYKYAMGWYRQAPGKERELVAAISSGASTNYADSVKGRFTISRDNAKNTVYLQMNSLKPEDTAVYYCNVTTGASFEFDYWGQGTQVTVSS | low polyreactivity |
| QVQLVESGGGLVQAGGSLRLSCAASGIIYRQNAMGWYRQATRKEREFVAAISSGGNTYYADSVKGRFTISRDNAKNTVYLQMNSLKPEDTGFYYCAADVEDRYHRAWFDYWGQGTKVTVSS | low polyreactivity |
| QVQLVESGGGLVQAGGSLRLSCAASGIIYWVNAMGWYRQAPGKERELVAVINRGTYYADSVKGRFTISRDNAKNTVYLQMNSLKPEDTAVYYRYAYTSTTEYDYWGLGTQVTVSS | low polyreactivity |
| QVQLVESGGGLVQAGGSLRLSCAASGILSNYYAMGWYRQAPGKERELVASIRLSGGRTYYADSVKGRFTISRDNAKNTVYLQMNSLKPEDTAVYYCAAGTRRTYSKFDYWGQGTQVTVSS | high polyreactivity |
| QVQLVESGGGLVQAGGSLRLSCAASGINFCWYAMGWYRQAPGKERELVAAISGTGGSTYYADSVKGRFTISRDNAKNTVYLQMNSLKPEDTAVYYCAARGKSSSYYDYDYCGQGTQVTVSS | low polyreactivity |
| QVQLVESGGGLVQAGGSLRLSCAASGINFDDNTMGWYRQAPGKERELLAAISSSGGSTYYADSVKGRFTISRDNAKNTVYFQMNSLNPEDTAVYYCAAADYYTYPYIVYRNYPEFDYWGQGTQVTVSS | low polyreactivity |
| QVQLVESGGGLVQAGGSLRLSCAASGINFDGNVMGWYRPAPRKEREFFASISISGGSTSYADSVKGRFTISRDNAKNTVYLQMNSLKPEDTAVYYCNTDVCYGRVWRWRFHGDYWGQGTQVTVSS | low polyreactivity |
| QVQLVESGGGLVQAGGSLRLSCAASGINFGRYAMGWYRQAPGKERELVATITVNGGRTYYADSVKGRFTISRDNAKNTVYLQMNSLKPEDTAVYYCNAEVPGHYFDGWYFYDFDYWGQGTQVTVSS | low polyreactivity |
| QVQLVESGGGLVQAGGSLRLSCAASGINFGYYAMGWYRQAPGKERELVAAISRRGGSTYYADSVKGRFTISRDNAKNTVYLQMNSLKPEDTAVYYCYKRRAAGGFPYVYWGQGTQVTVSS | high polyreactivity |
| QVQLVESGGGLVQAGGSLRLSCAASGINFIYNAMGWYRQAPGKERELVATISRRGGSTYYADSVKGRFTISRDNAKNTVYLQMNSLKPEVTAVYYSARDVGAGSKISRLSSYNYWGQGTQVTVSS | low polyreactivity |
| QVQLVESGGGLVQAGGSLRLSCAASGINFNKYAMGWYRQAPGKEREFVAAITYRGGSTYYADSVKGRFTISRDNAKNTVYFQMNSLKPEDTAVYYCAARRITTYYYWGQGTQVTVSS | high polyreactivity |
| QVQLVESGGGLVQAGGSLRLSCAASGINFVYYAKGWYRPAAGKERELVAGITVNGGNTYYADSVKGRFTLSRDNAKNTVYLQMNSLKPEDTAVYYCNADYYWVLGVFDYWGHGTQVTVSS | low polyreactivity |
| QVQLVESGGGLVQAGGSLRLSCAASGINFYAYAMGWYRKAPGKERELVAAITFSAVSTYYADSVKGRFTISRDNAKNSVYLQMNSLKPEDTAVYYCAAEAYKQGVWDYDYWGQGTQVTVSS | low polyreactivity |
| QVQLVESGGGLVQAGGSLRLSCAASGISFNSYTMGGYRQAPGKERELVAAITASGGTTRYADSVKGRFTISRDNAKNTVYLQMNSLKPEYTAVYYCNALPFRYGKRRGYWGQGTQVTVSS | low polyreactivity |
| QVQLVESGGGLVQAGGSLRLSCAASGISFYSYTMGWYIQAPGKERELVAAIRGSDGSTYYADSVKGRFTLSRDNAKNTVYLQMNSLKPEVTAVYYCNRKFYWRRDYWGQGTQVTVSS | high polyreactivity |
| QVQLVESGGGLVQAGGSLRLSCAASGITCTFNTMGWYRQAPGKERELVAGITNGGSTYYADSVKGRFTISRDNAKNTVYLQMNSLKPEDTAVYYCNAQRRLRYGWFGPYDYWGQGTQVTVSS | low polyreactivity |
